According to publication PMC9958104, “Arabidopsis histone H3 lysine 9 methyltransferases KYP/SUVH5/6 are involved in leaf development by interacting with AS1-AS2 to repress KNAT1 and KNAT2” (Communications Biology, 2023):

T1: MBP-KYP recombinant protein (Arabidopsis thaliana, UniProt Q8GZB6 1-624)
T1 construct: KRYPTONITE (KYP/SUVH4), Arabidopsis thaliana; KYP CDS cloned into the pMAL-c5v vector; The purification is not described; source: E. coli BL21(DE3), recombinant protein
T1 sequence (looked up): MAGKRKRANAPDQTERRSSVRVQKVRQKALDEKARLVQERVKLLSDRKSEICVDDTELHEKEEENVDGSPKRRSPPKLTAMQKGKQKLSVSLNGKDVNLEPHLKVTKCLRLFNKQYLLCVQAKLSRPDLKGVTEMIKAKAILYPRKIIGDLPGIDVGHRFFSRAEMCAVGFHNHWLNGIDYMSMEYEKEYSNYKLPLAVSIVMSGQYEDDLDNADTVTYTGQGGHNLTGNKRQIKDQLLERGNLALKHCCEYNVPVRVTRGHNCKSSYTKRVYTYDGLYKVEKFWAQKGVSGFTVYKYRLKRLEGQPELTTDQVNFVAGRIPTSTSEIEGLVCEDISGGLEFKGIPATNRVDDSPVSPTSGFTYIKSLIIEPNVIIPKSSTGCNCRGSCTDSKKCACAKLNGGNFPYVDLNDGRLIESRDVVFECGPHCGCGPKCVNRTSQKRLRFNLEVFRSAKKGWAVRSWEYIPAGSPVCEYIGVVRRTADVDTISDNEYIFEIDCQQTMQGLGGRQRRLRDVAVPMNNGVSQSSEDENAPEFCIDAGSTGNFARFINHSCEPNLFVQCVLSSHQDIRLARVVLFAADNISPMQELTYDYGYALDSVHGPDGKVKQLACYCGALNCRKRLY

B1: maltose-binding protein (MBP) fused AS1 (MBP-AS1) (natural protein, Arabidopsis thaliana, UniProt O80931 1-367, looked up)
chain: MKERQRWSGEEDALLRAYVRQFGPREWHLVSERMNKPLNRDAKSCLERWKNYLKPGIKKGSLTEEEQRLVIRLQEKHGNKWKKIAAEVPGRTAKRLGKWWEVFKEKQQREEKESNKRVEPIDESKYDRILESFAEKLVKERSNVVPAAAAAATVVMANSNGGFLHSEQQVQPPNPVIPPWLATSNNGNNVVARPPSVTLTLSPSTVAAAAPQPPIPWLQQQQPERAENGPGGLVLGSMMPSCSGSSESVFLSELVECCRELEEGHRAWADHKKEAAWRLRRLELQLESEKTCRQREKMEEIEAKMKALREEQKNAMEKIEGEYREQLVGLRRDAEAKDQKLADQWTSRHIRLTKFLEQQMGCRLDRP
notes: source: E. coli BL21(DE3), recombinant protein

Assays:
[1] = biological target: T1, MBP-KYP recombinant protein; experiment: quartz crystal microbalance (QCM); AffinixQN QCM biosensor; first protein immobilised on the Au electrode until saturation (AS1 for the AS1-KYP pair), second protein injected repeatedly; 50 mM Tris-HCl, 150 mM NaCl, 1 mM DTT, 25 °C; Langmuir equation; three replicates; conditions: both partners purified
[2] = biological target: B1; experiment: as above; conditions: both partners purified

Kd [1] [µM] | Kd [2] [µM] | Binder
33.6 |  | B1
18.6 | 25.3 | maltose-binding protein (MBP) fused AS2 (MBP-AS2) (natural protein, Arabidopsis thaliana, UniProt O04479 1-199, looked up, source: E. coli BL21(DE3), recombinant protein) MASSSTNSPCAACKFLRRKCQPECVFAPYFPPDQPQKFANVHKVFGASNVTKLLNELHPSQREDAVNSLAYEADMRLRDPVYGCVGVISLLQHQLRQLQIDLSCAKSELSKYQSLGILAATHQSLGINLLAGAADGTATAVRDHYHHHQFFPREQMFGGLDVPAGNNYDGGILAIGQITQFQQPRAAAGDDGRRTVDPS
